Values quoted from earlier work in article PMC11172262.

Biological target: Claudin-1 (Homo sapiens) (UniProt O95832)

Kd: 47 nM
Substance: Claudin-1 ECL1 (from UniProt O95832)
